Blank lines part the entries; values can stand above or below the substance they belong to.
How the values were obtained:
[1] = molecular target: purified recombinant human VWF (human) (UniProt P04275); assay: BLI (Octet-QK), rhVWF immobilized, FVIII 1.4 nM, single exponential decay
[2] = molecular target: purified recombinant human VWF (human) (UniProt P04275); assay: BLI (Octet-QK), rhVWF immobilized, FVIII 3.5 nM, single exponential decay
[3] = molecular target: VWF in the plasma of the mice (endogenous murine VWF) (murine) (UniProt Q8CIZ8); assay: sandwich ELISA of mouse plasma, anti-VWF capture, anti-FVIII detection
[4] = molecular target: VWF in the plasma of the mice (endogenous murine VWF) (murine) (UniProt Q8CIZ8); assay: sandwich ELISA of mouse plasma, anti-VWF capture, anti-FVIII detection; reference arbitrarily set as 100%

koff [1]: 0.003 s⁻¹ | koff [2]: 0.0022 s⁻¹
Substance: purified recombinant full-length factor VIII (Kogenate), P00451 20-2351

VWF-FVIII complex relative to WT-FVIII-SQ [3]: 8%
Substance: B-domainless FVIII containing a Tyr to Phe replacement at position 1680 (FVIII-SQ/p.Y1680F) (from UniProt P00451 20-2351)

VWF-FVIII complex relative to WT-FVIII-SQ [4]: 100%
Substance: wild-type B-domainless FVIII (WT-FVIII-SQ) (from UniProt P00451 20-2351)

Source: US20200207869A1
